B1: Bromodomain adjacent to zinc finger domain protein 2B, residues 1927 to 1982; numbered along this chain, Q9UIF8 (parent)
chain: KSIMKVYCQICRKGDNEELLLLCDGCDKGCHTYCHRPKITTIPDGDWFCPACIAKA

Variants of: B1
Assay: abundance fitness (aPCA) (normalised: wild type 0, dead -1); higher = more abundant; growth selection in yeast, the domain comes from the species named
Conditions: Homo sapiens

Abundance fitness, by site and new letter:
L21: P -0.524; H -0.37; K -0.005; M -0.076; N -0.206; I -0.072; Y -0.374; G -0.224; T -0.042; F -0.3; S -0.2; E -0.336; D -0.346; A -0.117; W -0.248
K28: G -0.02; D -0.055; H 0.04; E 0.034; A -0.085; C -0.158; F 0.094
C26: A -0.598; L -0.819; D -0.676; K -0.744; V -0.612; E -0.676; R -0.674; S -0.616; I -0.673; P -0.75; N -0.753; Q -0.711; F -0.969; G -0.572; W -0.931; T -0.678; Y -0.706; H -1.04
D15: Q -0.238; V -0.06; L -0.362; P -0.293; N -0.008; G -0.099; Y -0.452; E 0.113; F -0.118; M -0.406; C -0.122; H -0.429; A -0.234; R -0.263; T -0.22; I -0.221; W -0.279; K -0.038
L20: F 0.058; Q -0.34; T -0.094; N -0.337; G -0.509; K -0.138; A -0.227; V -0.069; D -0.566; C -0.011; P -0.421; R -0.318; S -0.308; E -0.34; W -0.354; M -0.009
L22: P -0.126; H -0.039; N -0.051; Y -0.174; K 0.144; S 0.01; T -0.024; I -0.054; V -0.034; G -0.006; M -0.067; C 0.008; E 0.029; A 0.032
I10: E 0.095; H 0.079; V -0.051; P -0.479; S -0.055; G -0.148; Q -0.009; F -0.181; T -0.01; M -0.047; N 0.266; K -0.131; L 0.004; W -0.03; Y -0.135; C 0.089
C11: T -1.14; V -1.16; K -0.887; H -0.85; P -0.767; M -1.08; A -1.03; Q -1.19; N -1.04; G -1.1; W -1.21; R -0.933; E -0.808; L -1.01; S -0.997; D -1.05; I -0.912; F -0.961
D27: V -0.222; R -0.127; E 0.109; W -0.069; Y -0.085; N -0.096; K -0.001; G 0.023; T -0.08; A -0.112; S -0.099; P -0.173; M -0.128; C -0.187
K13: D -0.047; Y -0.271; W -0.25; H -0.076; A -0.032; E -0.045; N -0.102; P -0.512; I -0.136; G -0.047; M -0.002; T -0.164; F -0.24; V -0.138; Q -0.111; S -0.11; R -0.177
G25: L -0.266; H -0.124; T -0.09; Q 0.003; R -0.096; Y -0.221; N -0.16; D -0.192; K -0.031; P -0.551; W -0.251; I -0.45; F -0.33; A -0.171; E -0.014; S -0.149
G14: A 0.011; P -0.026; I -0.23; D -0.056; L -0.056; Q -0.003; S 0.032; E -0.07; T 0.046; F -0.127; R 0.018; K -0.063; Y 0.079; M 0.002; C -0.171; V 0.035; H -0.054
N16: Y -0.032; F -0.329; G -0.014; S -0.008; D 0.046; W -0.183; M -0.165; Q 0.01; L -0.116; E 0.018; V -0.181; H 0; A -0.125; C -0.081; I -0.098; T -0.017
D24: A 0.048; R -0.061; H -0.063; E 0.219; Y -0.669; T 0.06; Q 0.08; N 0.113; L -0.034; F -0.273; C 0.073; P -0.05; M 0.026; S 0.053; G 0.155; K -0.005
L19: F -0.294; D -0.138; N 0.027; T -0.1; C -0.071; S -0.03; R -0.078; V -0.011; Q 0.137; K -0.016; E -0.012; Y -0.067; M 0.061; W -0.03; G -0.064; P -0.08; I -0.125
R12: Y -0.183; H -0.187; C -0.163; F -0.23; E 0.008; M -0.05; S 0.042; W -0.256; V -0.079; T -0.028; P -0.89; D -0.021; G -0.055; K 0.043; I 0.001; A 0.008; Q -0.041
C23: Y -0.42
Y7: T -0.102; V -0.145; P -0.179; F -0.086; N 0.057; L -0.14; Q -0.043; S -0.025; M -0.059; R -0.152; H -0.045; G -0.118; I -0.197; K -0.147
C8: S -0.944; Y -0.942; T -0.902; P -0.686; W -1.17; M -0.807; A -1.25; L -1.13; E -0.836; I -1.34; N -1.11; R -1.08; H -1.02; Q -0.661; D -1; F -0.978; G -0.916
Q9: C -0.091; T -0.063; V -0.149; A -0.108; F -0.099; N -0.041; Y 0.029; S 0.07; D 0.028; M -0.096; P 0.004; I -0.164; W -0.203; L -0.103; R -0.195; G -0.038; K -0.146
E17: R 0.072; P 0.085; S -0.015; L -0.008; Y -0.409; W -0.092; F -0.363; Q 0.103; G 0.022; D -0.038; C 0.005; I -0.127; M -0.052; K 0.172; H -0.34; T -0.069; N -0.139
E18: I -0.376; H 0.042; G -0.046; M -0.039; K 0.051; Q -0.067; T -0.011; A -0.011; P -0.183; C -0.235; R -0.055; F -0.124; S 0.01; V -0.205; W -0.266; Y -0.188

From the Human Domainome abundance scans (Beltran et al. 2025)
